The values that follow come from PMC10394140.

This data set addresses Re-PAX5 P80R (Homo sapiens, UniProt Q02548 1-391, P80R). Kind of data set: EMSA. In general terms: Mobility shift assays separate free from complexed probe on a gel.

Chain of Re-PAX5 P80R (Q02548 whole entry P80R): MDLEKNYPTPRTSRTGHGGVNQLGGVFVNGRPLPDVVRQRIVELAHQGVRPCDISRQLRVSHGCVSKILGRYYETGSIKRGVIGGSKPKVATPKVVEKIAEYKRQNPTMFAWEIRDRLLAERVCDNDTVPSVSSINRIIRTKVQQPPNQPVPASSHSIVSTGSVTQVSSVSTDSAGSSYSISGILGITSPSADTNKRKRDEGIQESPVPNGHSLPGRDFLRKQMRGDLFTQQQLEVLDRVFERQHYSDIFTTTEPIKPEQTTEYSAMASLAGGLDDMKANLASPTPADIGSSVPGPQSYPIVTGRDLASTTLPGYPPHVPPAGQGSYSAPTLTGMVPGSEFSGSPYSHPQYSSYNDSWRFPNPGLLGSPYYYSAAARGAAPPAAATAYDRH

B1: Probe-1 (GINS1 promoter site1) (dsDNA)
DNA 1: GGTGCGGTGGCTCACGCTGTAATTCC
DNA 2: GGAATTACAGCGTGAGCCACCGCACC
B1: the binding result is listed as “no binding”.
